The chains are these.
B1: OR4K15 (parent)
chain: GUUAACGGUCAUAGGCCAUGGAAACUAGGAGCACCAUUUCGCUGCCAGUGAAGAAAUGAACAAAGAAAAUCUGGGCCAGGCAGGCAUCAAAAGAAAUAGUCUUGCGCUCAACCAGAAAGUCUGUAAUCAUUUUAAGGGUA

We go through 167 variants from the RNAGym collection of RNA variant scans (doi:10.7554/elife.90254).

This series covers variants of B1. The series can be described thus: self-cleavage, relative activity (ratio to wild type); higher = more cleavage; in vitro, sequencing; the parent is a self-cleaving ribozyme.
With A11U U19C, the self-cleavage was found to be 1.85.
To A89U A140G belongs 1.61; to A68U U72A, 0.34; to A66G A90U, 1.31.
Turning to U26A U120G, the self-cleavage was found to be 1.26.
In the case of G50A G138A, the self-cleavage was 1.51.
In the case of U127G A129G, the self-cleavage came out at 0.97.
On to U9C U37A, for which the self-cleavage worked out at 2.35.
The same measure for A11U A89U: 1.59; for A92U A129U: 1; for U120C U130A: 0.71.
C45U U120C: the self-cleavage was determined as 1.06.
C107G A117G: the self-cleavage was 0.01.
With C77U A89G, the self-cleavage is 2.1.
With A52U A59G, the self-cleavage amounted to 1.48.
G58U: the self-cleavage stood at 1.43.
Regarding G74A A96G, the self-cleavage is 0.24.
U120C U122G: the self-cleavage turned out to be 2.61.
With U19A A118G, the self-cleavage came to 0.88.
As to U57A G106A, the self-cleavage is 0.01.
Take A111U A117G: the self-cleavage was found to be 0.06.
On to C107A U133A, for which the self-cleavage was determined as 0.02.
On to G44A A82U, for which the self-cleavage came to 0.23.
Regarding A95G G123A, the self-cleavage stood at 1.22.
Consider A86G A94U, for which the self-cleavage came out at 2.2.
For the variant U19A A114U, the self-cleavage amounted to 0.04.
A92U A118U: the self-cleavage was found to be 0.74.
The same measure for A30C A96G: 1.43; for A110G G136A: 0.09; for C77U U130C: 1.61.
As for A63G A67U, the self-cleavage was found to be 1.45.
As for A13U A36G, the self-cleavage came out at 0.89.
For the variant A52C A129G, the self-cleavage came out at 0.62.
Regarding A5G A86G, the self-cleavage came out at 0.63.
For the variant A62C U108A, the self-cleavage was 0.02.
A18G A78U: the self-cleavage turned out to be 0.35.
To U87C A90C belongs 0.98.
On to A129U, for which the self-cleavage is 0.65.
With G84U U108C, the self-cleavage was 0.02.
The same measure for U37C A62G: 1.57; for A5G: 0.92; for A69G A82G: 0.48.
Regarding A82C A135G, the self-cleavage was determined as 0.15.
In the case of U3C A116G, the self-cleavage stood at 0.68.
For the variant U37C G137A, the self-cleavage stood at 1.64.
Take U43C C112U: the self-cleavage came to 0.
Consider U2C U127C, for which the self-cleavage came out at 0.9.
In the case of A69U U102C, the self-cleavage is 2.2.
A67U C113U: the self-cleavage was found to be 0.42.
To A30G G123U belongs 0.53; to G7A A92G, 1.8; to U19A A78G, 0.31.
As to C32U A55G, the self-cleavage was found to be 0.65.
In the case of A54C A64G, the self-cleavage came out at 1.36.
In the case of A36U U97C, the self-cleavage came out at 0.37.
As for A18U, the self-cleavage was determined as 1.11.
For A55G A62U, the self-cleavage was 1.41.
As to A68G G123A, the self-cleavage came to 1.45.
To A47G A63U belongs 1.03; to A11G A47G, 1.27.
Regarding A47G A82U, the self-cleavage is 0.07.
Take A59U A64G: the self-cleavage is 1.4.
As to A13C A23G, the self-cleavage worked out at 1.36.
The same measure for C105U U122C: 0.11; for A55U A114G: 0.21; for G21A A95G: 2.07.
On to U103C A110U, for which the self-cleavage is 0.79.
With G50U A114U, the self-cleavage is 0.08.
Regarding U19C C76U, the self-cleavage is 0.14.
To G7A A22G belongs 1.42; to U38C A126G, 1.56.
Turning to U38A A117G, the self-cleavage turned out to be 2.22.
With A22G A24G, the self-cleavage was 1.
Take A86G A134G: the self-cleavage came out at 1.25.
As for A23U A54G, the self-cleavage was 1.59.
As to G29A U39A, the self-cleavage amounted to 1.8.
For U26A A129G, the self-cleavage was 1.36.
To U37A A51U belongs 1.05.
To U26A C34U belongs 1.99; to U19A A117U, 0.55.
In the case of U19A A117G, the self-cleavage worked out at 1.57.
For the variant A60G A94G, the self-cleavage stood at 1.37.
As for U12C A64G, the self-cleavage turned out to be 0.41.
For the variant U38C A90C, the self-cleavage is 1.62.
Turning to A90U A110U, the self-cleavage amounted to 0.89.
Turning to A27U G53A, the self-cleavage was 1.86.
On to G7A U70A, for which the self-cleavage was found to be 1.94.
As for U9C A13U, the self-cleavage came out at 1.22.
C109A: the self-cleavage amounted to 0.38.
Consider C105U U108C, for which the self-cleavage turned out to be 0.02.
Regarding A24G A67U, the self-cleavage turned out to be 1.32.
For U37C U57A, the self-cleavage came out at 0.99.
Consider G79U U102C, for which the self-cleavage was 0.06.
As to U87A U120C, the self-cleavage worked out at 1.28.
With A62G A92G, the self-cleavage was determined as 1.22.
In the case of U39A A94C, the self-cleavage was 1.87.
The same measure for A23G A110U: 1.25; for C46U U87C: 1.68.
The same measure for A63G U97A: 1.94; for A63G G123A: 2.17; for U87A A116G: 0.28.
The same measure for A11G A54G: 1.01.
On to C32A A110U, for which the self-cleavage stood at 2.04.
To A47U A111G belongs 0.04.
In the case of A67G A82G, the self-cleavage worked out at 0.6.
U12A: the self-cleavage is 1.19.
For the variant U37G G138A, the self-cleavage is 1.23.
A27G A92G: the self-cleavage was 1.48.
The same measure for U2C A118U: 0.44.
Take A5G U19C: the self-cleavage was found to be 0.96.
The same measure for U120C G138U: 2.11.
In the case of G75A C105U, the self-cleavage is 0.01.
The same measure for A64U A135G: 1.22.
For the variant U9A A89U, the self-cleavage stood at 0.66.
G74U A118G: the self-cleavage amounted to 0.1.
For A63G A111C, the self-cleavage was 0.02.
To A52G U102A belongs 0.89.
In the case of G83U U122A, the self-cleavage came out at 0.15.
On to A92G U132C, for which the self-cleavage was determined as 1.35.
Regarding U70A U127C, the self-cleavage turned out to be 0.34.
Take A22G C34U: the self-cleavage was determined as 1.33.
With U9C A59G, the self-cleavage is 1.32.
For the variant A47G C105A, the self-cleavage was found to be 0.07.
Consider A69G A116U, for which the self-cleavage came out at 0.12.
In the case of A11G C101U, the self-cleavage was found to be 0.38.
A24G G58U: the self-cleavage was 1.92.
As to A30C U108C, the self-cleavage was 0.
To U43C A82G belongs 0.36; to A64G A135G, 1.7; to A30G G79A, 0.17.
For U9C G83A, the self-cleavage worked out at 2.33.
The same measure for U49A G74A: 0.24.
For A59G C107U, the self-cleavage amounted to 0.01.
A55G A82G: the self-cleavage was determined as 0.83.
A47G A125U: the self-cleavage amounted to 1.01.
Take A129G A134U: the self-cleavage was 1.02.
In the case of C16U A52G, the self-cleavage worked out at 0.37.
In the case of U49A, the self-cleavage was determined as 1.05.
To A11C A118G belongs 2.4; to A56G U103C, 0.25.
With A55C G79A, the self-cleavage turned out to be 0.49.
As to A18G U108A, the self-cleavage was determined as 0.03.
Consider C40U A116G, for which the self-cleavage came out at 1.57.
Regarding U19C U133C, the self-cleavage was found to be 2.01.
Take C25U U120A: the self-cleavage was 2.95.
Consider A89G U108C, for which the self-cleavage stood at 0.02.
As for A86G C112A, the self-cleavage was 0.
To C77U U100C belongs 2.13.
To A89G U120C belongs 0.65.
On to U70A A110U, for which the self-cleavage was 0.18.
U3A A118G: the self-cleavage came out at 0.9.
A62G U97C: the self-cleavage was 1.34.
For the variant U38C A67G, the self-cleavage was determined as 1.55.
The same measure for U37A A135U: 2.22; for A13U A52G: 1.18.
Regarding G7U A18U, the self-cleavage is 0.43.
A90U A126U: the self-cleavage came to 0.98.
U3C A23G: the self-cleavage came to 1.22.
On to A52C A111G, for which the self-cleavage is 0.
Consider U38C C112A, for which the self-cleavage came to 0.
A118G A134U: the self-cleavage was found to be 1.03.
As for G7U A135U, the self-cleavage is 2.23.
As to A47G G115U, the self-cleavage is 0.09.
As to U12A U49A, the self-cleavage amounted to 0.48.
Consider U100A U108C, for which the self-cleavage was 0.03.
As for A92U A117G, the self-cleavage is 2.08.
Take U19C A135U: the self-cleavage worked out at 1.5.
